Here are results for five proteins from patent US20050215629.

The target of this data set is T1, synthetic phosphotyrosine peptide Arg-Arg-Leu-Ile-Glu-Asp-Ala-Glu-Tyr-Ala-Ala-Arg-Gly, wherein the tyrosine is phosphorylated.
T1 chain: RRLIEDAEYAARG

B1: Flag-tagged PRL-1 (protein)
chain: MARMNRPAPVEVTYKNMRFLITHNPTNATLNKFIEELKKYGVTTIVRVCEATYDTTLVEKEGIHVLDWPFDDGAPPSNQIVDDWLSLVKIKFREEPGCCIAVHCVAGLGRAPVLVALALIEGGMKYEDAVQFIRQKRRGAFNSKQLLYLEKYRPKMRLRFKDSNGHRNNCCIQ
Consider B1, for which the “immunocomplex PTPase assay (anti-Flag immunocomplexes from NIH3T3 transfectants)” value is reported as “a markedly higher PTPase activity (about 23 folds) over that of control transfectants” and the “immunocomplex PTPase assay (anti-Flag immunocomplexes from WM9 transfectants)” value is reported as “showed phosphatase activities well above the background activity of the vector control cells”.

B2: Flag-tagged PRL-1R86 mutant (protein)
chain: MARMNRPAPVEVTYKNMRFLITHNPTNATLNKFIEELKKYGVTTIVRVCEATYDTTLVEKEGIHVLDWPFDDGAPPSNQIVDDWLRLVKIKFREEPGCCIAVHCVAGLGRAPVLVALALIEGGMKYEDAVQFIRQKRRGAFNSKQLLYLEKYRPKMRLRFKDSNGHRNNCCIQ
In the case of B2, the “immunocomplex PTPase assay (anti-Flag immunocomplexes from WM9 transfectants)” value was “showed phosphatase activities well above the background activity of the vector control cells”.

B3: GST fusion protein of PRL-1R86 (protein)
chain: MARMNRPAPVEVTYKNMRFLITHNPTNATLNKFIEELKKYGVTTIVRVCEATYDTTLVEKEGIHVLDWPFDDGAPPSNQIVDDWLRLVKIKFREEPGCCIAVHCVAGLGRAPVLVALALIEGGMKYEDAVQFIRQKRRGAFNSKQLLYLEKYRPKMRLRFKDSNGHRNNCCIQ
Regarding B3, the “in vitro PTPase assay” value is “showed in vitro PTPase activity similar to that of wild type PRL-1”.

B4: GST fusion protein of human PRL-1 (protein)
chain: MARMNRPAPVEVTYKNMRFLITHNPTNATLNKFIEELKKYGVTTIVRVCEATYDTTLVEKEGIHVLDWPFDDGAPPSNQIVDDWLSLVKIKFREEPGCCIAVHCVAGLGRAPVLVALALIEGGMKYEDAVQFIRQKRRGAFNSKQLLYLEKYRPKMRLRFKDSNGHRNNCCIQ
As for B4, the “in vitro PTPase assay” value is “PTPase activity of recombinant PRL-1, PRL-2 and PRL-3 in dephosphorylating a synthetic phosphotyrosine peptide substrate”.

B5: GST fusion protein of human PRL-2 (protein)
chain: MNRPAPVEISYENMRFLITHNPTNATLNKFTEELKKYGVTTLVRVCDATYDKAPVEKEGIHVLDWPFDDGAPPPNQIVDDWLNLLKTKFREEPGCCVAVHCVAGLGRAPVLVALALIECGMKYEDAVQFIRQKRRGAFNSKQLLYLEKYRPKMRLRFRDTNGHCCVQ
In the case of B5, the “in vitro PTPase assay” value is “PTPase activity of recombinant PRL-1, PRL-2 and PRL-3 in dephosphorylating a synthetic phosphotyrosine peptide substrate”.
